Target: the molecule itself
Test: NMR solution structure

B1: RFX5(25-90), oligomerization domain of RFX5 (domain or fragment, UniProt P48382 25-90, looked up)
chain: GEPTTLLQRLRGTISKAVQNKVEGILQDVQKFSDNDKLYLYLQLPSGPTTGDKSSEPSTLSNEEYM
- stoichiometry N: 2
